Data: patent publication US20060148055A1 (published 2006)
No end group written: not given here. MDA = malondialdehyde

What follows are binders tested against scavenger LDL receptor in monocytes (assay: cell-based or functional assay).

Row | Mean fluorescence (Ex 520 nm, Em 590 nm) of DiI-labelled oxidised LDL (50 ug) taken up by lipid-starved U937 monocytes with 500 ug peptide as competitor; oxidised LDL alone 3433, Control 1657 | Binder
1 | 1410 fluorescence (unit not printed) | RLTRKRGLKLA [peptide SEQ ID NO: 2]
2 | 2000 fluorescence (unit not printed) | ALSLSNK(MDA)FVEG [peptide SEQ ID NO: 3 MDA-conjugated]
3 | 2610 fluorescence (unit not printed) | ALQYKLEGTTR (also: multiple antigenic peptide, branching core and copy number not given here, MDA-conjugated, site not given here) [multiple antigenic peptide SEQ ID NO: 1 MDA-conjugated (mapped peptide)]
4 | 1760 fluorescence (unit not printed) | ALSLSNKFVEG [peptide SEQ ID NO: 3]
5 | 2450 fluorescence (unit not printed) | RLTRK(MDA)RGLKLA [peptide SEQ ID NO: 2 MDA-conjugated]
6 | 2130 fluorescence (unit not printed) | ALQYK(MDA)LEGTTR (not fully specified) [peptide SEQ ID NO: 1 MDA-conjugated]
